Among the data in article PMC9808001 (2022) are Kd values, retold here.

The term Kd denotes the constant that tells how readily two partners part at equilibrium. Lower therefore signals tighter binding.

The target in the assay is RAB1A (Homo sapiens (Human), UniProt P62820). The assay can be described thus: BLI. In general terms: BLI is a label-free optical method that tracks binding on a fibre tip over time.
Sequence of RAB1A (P62820 6-177): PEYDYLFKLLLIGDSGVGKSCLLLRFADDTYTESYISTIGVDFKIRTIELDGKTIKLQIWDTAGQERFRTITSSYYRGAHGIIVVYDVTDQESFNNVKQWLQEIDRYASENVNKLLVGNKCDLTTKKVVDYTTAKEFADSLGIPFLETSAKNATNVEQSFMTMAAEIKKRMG

B1: WDR44 (protein)
chain: VMGPQRPRSNSGRELTDEEILASVMIKNLDTGEEIPLSLAEEKLPTGINPLTLHIM
Take B1: the Kd was over 500 nM.
